39 molecules from patent US20180362632A1 (published 2018) can be followed below.

B1: 23F4 chimera (antibody, V domains shown)
VH: QVQLQQSGPELVKPGTSMKISCKTSDYTLTSHYLHWVKQRPGQGLEWIGWIFPGDDKTKYNEKFKGKATLTSDKTSNTAYMQLSSLTSEESAVYFCARGTKYLNWNFDVWGTGTTVTVSS
VL: DIVLTQPQKFLSTSVGDRVSVTCKANQNVGTTLAWYQQKPGQSPKALIYSASYRYSGVPDRFTGSGSGTDFTLTISNVQSEDLAEYFCHQYTTYPLTFGGGTKLEIK
B2: Hu23F4-28 (antibody, V domains shown)
VH: EVQLVQSGAEVKKPGASVKVSCKASGYTFTSHYLHWVRQAPGQGLEWMGWIFPGDDKTKYNEKFKGRVTLTSDTSISTAYMELSRLRSDDTAVYYCARGTKYLNWNFDVWGQGTTVTVSS
VL: DIQLTQSPSFLSASVGDRVTITCKANQNVGTTLAWYQQKPGKAPKLLIYSASYRYSGVPSRFSGSGSGTEFTLTISSLQPEDFATYYCHQYTTYPLTFGGGTKVEIK
B3: Hu23F4-33 (antibody, V domains shown)
VH: B2 VH with M48I, V68A
VL: B2 VL with L46A
B4: Hu23F4-30 (antibody, V domains shown)
VH: B2 VH
VL: B2 VL with L46A, S60D, E70D
B5: Hu23F4-31 (antibody, V domains shown)
VH: B2 VH
VL: B2 VL with A43S, L46A, S60D, E70D, Y87F
B6: Hu23F4-32 (antibody, V domains shown)
VH: B2 VH with M48I, V68A
VL: B2 VL
B7: Hu23F4-35 (antibody, V domains shown)
VH: B2 VH with M48I, V68A
VL: B2 VL with A43S, L46A, S60D, E70D, Y87F
B8: Hu23F4-34 (antibody, V domains shown)
VH: B2 VH with M48I, V68A
VL: B2 VL with L46A, S60D, E70D
B9: Hu23F4-23 (antibody, V domains shown)
VH: B2 VH with L70M, S72R
VL: B2 VL with A43S, L46A, S60D, E70D, Y87F
B10: Hu23F4-36 (antibody, V domains shown)
VH: B2 VH with G26D, F29L, M48I, V68A
VL: B2 VL
B11: Hu23F4-38 (antibody, V domains shown)
VH: B2 VH with G26D, F29L, M48I, V68A
VL: B2 VL with L46A, S60D, E70D
B12: Hu23F4-29 (antibody, V domains shown)
VH: B2 VH
VL: B2 VL with L46A
B13: Hu23F4-25 (antibody, V domains shown)
VH: B2 VH with L70M
VL: B2 VL with L46A
B14: Hu23F4-24 (antibody, V domains shown)
VH: B2 VH with L70M
VL: B2 VL
B15: Hu23F4-37 (antibody, V domains shown)
VH: B2 VH with G26D, F29L, M48I, V68A
VL: B2 VL with L46A
B16: Hu23F4-26 (antibody, V domains shown)
VH: B2 VH with L70M
VL: B2 VL with L46A, S60D, E70D
B17: Hu23F4-27 (antibody, V domains shown)
VH: B2 VH with L70M
VL: B2 VL with A43S, L46A, S60D, E70D, Y87F
B18: Hu23F4-18 (antibody, V domains shown)
VH: EVQLVQSGAEVKKPGATVKISCKVSDYTLTSHYLHWVQQAPGKGLEWIGWIFPGDDKTKYNEKFKGRATLTSDTSTDTAYMELSSLRSEDTAVYYCARGTKYLNWNFDVWGQGTTVTVSS
VL: B2 VL with L46A
B19: Hu23F4-20 (antibody, V domains shown)
VH: B2 VH with L70M, S72R
VL: B2 VL
B20: Hu23F4-22 (antibody, V domains shown)
VH: B2 VH with L70M, S72R
VL: B2 VL with L46A, S60D, E70D
B21: Hu23F4-4 (antibody, V domains shown)
VH: B18 VH with D26G, L29F, I48M, A68V, L70I, S72A
VL: B2 VL with A43S, L46A, S60D, E70D, Y87F
B22: Hu23F4-7 (antibody, V domains shown)
VH: B18 VH with D26G, L29F, I48M, A68V, L70I
VL: B2 VL with L46A, S60D, E70D
B23: Hu23F4-9 (antibody, V domains shown)
VH: B18 VH with D26G, L29F, I48M
VL: B2 VL
B24: Hu23F4-11 (antibody, V domains shown)
VH: B18 VH with D26G, L29F, I48M
VL: B2 VL with L46A, S60D, E70D
B25: Hu23F4-1 (antibody, V domains shown)
VH: B18 VH with D26G, L29F, I48M, A68V, L70I, S72A
VL: B2 VL
B26: Hu23F4-8 (antibody, V domains shown)
VH: B18 VH with D26G, L29F, I48M, A68V, L70I
VL: B2 VL with A43S, L46A, S60D, E70D, Y87F
B27: Hu23F4-2 (antibody, V domains shown)
VH: B18 VH with D26G, L29F, I48M, A68V, L70I, S72A
VL: B2 VL with L46A
B28: Hu23F4-14 (antibody, V domains shown)
VH: B18 VH with D26G, L29F
VL: B2 VL with L46A
B29: Hu23F4-17 (antibody, V domains shown)
VH: B18 VH
VL: B2 VL
B30: Hu23F4-13 (antibody, V domains shown)
VH: B18 VH with D26G, L29F
VL: B2 VL
B31: Hu23F4-19 (antibody, V domains shown)
VH: B18 VH
VL: B2 VL with L46A, S60D, E70D
B32: Hu23F4-21 (antibody, V domains shown)
VH: B2 VH with L70M, S72R
VL: B2 VL with L46A
B33: Hu23F4-12 (antibody, V domains shown)
VH: B18 VH with D26G, L29F, I48M
VL: B2 VL with A43S, L46A, S60D, E70D, Y87F
B34: Hu23F4-3 (antibody, V domains shown)
VH: B18 VH with D26G, L29F, I48M, A68V, L70I, S72A
VL: B2 VL with L46A, S60D, E70D
B35: Hu23F4-15 (antibody, V domains shown)
VH: B18 VH with D26G, L29F
VL: B2 VL with L46A, S60D, E70D
B36: Hu23F4-5 (antibody, V domains shown)
VH: B18 VH with D26G, L29F, I48M, A68V, L70I
VL: B2 VL
B37: Hu23F4-10 (antibody, V domains shown)
VH: B18 VH with D26G, L29F, I48M
VL: B2 VL with L46A
B38: Hu23F4-16 (antibody, V domains shown)
VH: B18 VH with D26G, L29F
VL: B2 VL with A43S, L46A, S60D, E70D, Y87F
B39: Hu23F4-6 (antibody, V domains shown)
VH: B18 VH with D26G, L29F, I48M, A68V, L70I
VL: B2 VL with L46A

Positions count from the first letter of the chain named. Values joined by “and” are separate entries in the source; they are usually repeats but may differ in a detail not shown here. Equal values may be shown once.

T1 sequence (P04141 18-144): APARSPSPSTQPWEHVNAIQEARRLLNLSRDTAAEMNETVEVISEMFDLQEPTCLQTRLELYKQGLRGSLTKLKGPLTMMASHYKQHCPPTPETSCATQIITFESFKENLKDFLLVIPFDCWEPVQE

The first assay addresses T1, recombinant human GM-CSF protein (human, UniProt P04141 18-144). In words: ELISA. In general terms: An ELISA detects its analyte on a solid surface through an enzyme-linked reagent.
A word on the EC50: it is the concentration giving half of the maximal effect. On to B1, for which the EC50 was 0.092 nM and 0.0881 nM.

On to B2, for which the EC50 worked out at 0.101 nM.

In the case of B3, the EC50 was 0.0954 nM.

As to B4, the EC50 turned out to be 0.0411 nM.

As for B5, the EC50 is 0.0424 nM.

As to B6, the EC50 came out at 0.0873 nM.

B7: the EC50 was found to be 0.0624 nM.

Regarding B8, the EC50 was 0.0977 nM.

In the case of B9, the EC50 was found to be 0.047 nM.

As for B10, the EC50 worked out at 0.0384 nM.

For B11, the EC50 worked out at 0.136 nM.

For B12, the concentration for a half-maximal effect (EC50) is 0.0736 nM.

Take B13: the EC50 was found to be 0.0268 nM.

As to B14, the EC50 was found to be 0.0907 nM.

For the molecule B15, the EC50 is 0.127 nM.

As for B16, the EC50 was 0.0348 nM.

With B17, the EC50 was 0.0384 nM.

A further assay deals with T1, recombinant human GM-CSF protein. Briefly: ELISA. This is another data set of the same source.
As to B1, the EC50 was 0.081 nM and 0.0923 nM.

B18: the EC50 stood at 0.0585 nM.

For B19, the EC50 is 0.0993 nM.

With B20, the EC50 worked out at 0.059 nM.

Take B21: the EC50 is 0.0623 nM.

B22: the half-maximal effective concentration (EC50) came out at 0.164 nM.

With B23, the EC50 came to 0.0516 nM.

Take B24: the EC50 was 0.0871 nM.

Regarding B25, the EC50 was determined as 0.11 nM.

As to B26, the EC50 turned out to be 0.0484 nM.

Turning to B27, the EC50 came to 0.158 nM.

Consider B28, for which the EC50 amounted to 0.0508 nM.

As for B29, the EC50 was found to be 0.102 nM.

Take B30: the EC50 worked out at 0.0852 nM.

B31: the half-maximal effective concentration (EC50) worked out at 0.0787 nM.

Take B32: the EC50 came to 0.151 nM.

Turning to B33, the EC50 amounted to 0.226 nM.

As for B34, the EC50 stood at 0.0887 nM.

Turning to B35, the EC50 worked out at 0.171 nM.

On to B36, for which the EC50 amounted to 0.0585 nM.

In the case of B37, the EC50 came to 0.116 nM.

With B38, the EC50 came to 0.0858 nM.

As for B39, the EC50 is 0.0196 nM.
